Here are results for one protein from patent US6558918.

In data set [1] the target is monomeric Cdc2, P06493.
Data set [2] concerns the target Cdk2/cyclin A complex, P24941.
Data set [3] concerns the target Cdc2/cyclin A complex, P06493.
The target in data set [4] is Cdc2-F15/CyclinB1 complex, P06493.
The target in data set [5] is Cdc2-A14/cyclin B1 complex, P06493.
Data set [6] deals with wild-type Cdc2/cyclin B1 complex, P06493.
Data set [7] concerns the target kinase-deficient Cdc2 mutant (K-) complexed with cyclin B1, P06493.
Data set [8] deals with Cdk4/cyclin D1 complex, P11802.
Data set [9] addresses Cdk2/cyclin E complex, P24941.
The target of data set [10] is Cdc2-AF/CyclinB1 complex, P06493.
Cdc2-AF/CyclinB1 complex, P06493, sequence (P06493 whole entry, looked up, one chain of several): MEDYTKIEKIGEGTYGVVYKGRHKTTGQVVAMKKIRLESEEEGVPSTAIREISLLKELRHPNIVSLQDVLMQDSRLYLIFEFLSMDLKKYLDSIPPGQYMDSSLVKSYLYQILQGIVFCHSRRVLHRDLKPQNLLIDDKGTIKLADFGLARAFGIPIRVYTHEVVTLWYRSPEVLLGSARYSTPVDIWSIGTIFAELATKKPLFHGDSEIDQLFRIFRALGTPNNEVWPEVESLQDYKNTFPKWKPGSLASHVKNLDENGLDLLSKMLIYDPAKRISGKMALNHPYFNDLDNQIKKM

wild-type Cdc2/cyclin B1 complex, P06493, sequence (P06493 whole entry, looked up, one chain of several): as above
kinase-deficient Cdc2 mutant (K-) complexed with cyclin B1, P06493, sequence (P06493 whole entry, looked up, change not shown, one chain of several): as the sequence (P06493 whole entry, looked up, one chain of several) above
Cdc2-A14/cyclin B1 complex, P06493, sequence (P06493 whole entry, looked up, one chain of several): as above
monomeric Cdc2, P06493, sequence (P06493 whole entry, looked up): as the sequence (P06493 whole entry, looked up, one chain of several) above
Cdc2-F15/CyclinB1 complex, P06493, sequence (P06493 whole entry, looked up, one chain of several): as above
Cdc2/cyclin A complex, P06493, sequence (P06493 whole entry, looked up, one chain of several): as above
Cdk4/cyclin D1 complex, P11802, sequence (P11802 whole entry, looked up, one chain of several): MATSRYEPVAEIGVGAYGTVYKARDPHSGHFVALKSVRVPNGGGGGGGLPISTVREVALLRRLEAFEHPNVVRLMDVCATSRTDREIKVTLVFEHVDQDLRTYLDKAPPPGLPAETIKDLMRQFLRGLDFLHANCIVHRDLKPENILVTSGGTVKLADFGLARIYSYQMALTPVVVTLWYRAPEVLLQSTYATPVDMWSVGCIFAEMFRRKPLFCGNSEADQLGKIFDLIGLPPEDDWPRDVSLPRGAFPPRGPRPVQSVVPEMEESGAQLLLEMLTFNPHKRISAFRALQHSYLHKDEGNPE

B1: Cell Growth Regulatory Protein, truncated hybrid protein (residues 1-9 deleted) with N-terminal Glu-Glu tag, expressed in Sf9 cells (protein)
chain: MEYMPMEGTRPEMPMPTEGTPPPLSGTPIPVPAYFRHAEPGFSLKRPRGLSRSLPPPPPAKGSIPISRLFPPRTPGWHQLQPRRVSFRGEASETLQSPGYDPSRPESFFQQSFQRLSRLGHGSYGEVFKVRSKEDGRLYAVKRSMSPFRGPKDRARKLAEVGSHEKVGQHPCCVRLEQAWEEGGILYLQTELCGPSLQQHCEAWGASLPEAQVWGYLRDTLLALAHLHSQGLVHLDVKPANIFLGPRGRCKLGDFGLLVELGTAGAGEVQEGDPRYMAPELLQGSYGTAADVFSLGLTILEVACNMELPHGGEGWQQLRQGYLPPEFTAGLSSELRSVLVMMLEPDPKLRATAEALLALPVLRQPRAWGVLWCMAAEALSRGWALWQALLALLCWLWHGLAHPASWLQPLGPPATPPDSPPCSLLLDSSFSSNWDDDSLGPSLSPEAVLARTVGSTSTPRSRCTPRDALDLSDINSEPPRGSFPSFEPRNLLSMFEDTLDPT
Turning to B1, in data set [1], the “32P-labeling in a kinase reaction with monomeric Cdc2 as substrate” value is recorded as “Cell Growth Regulatory Protein did not phosphorylate monomeric Cdc2”. Also, the “32P-labeling in a kinase reaction with purified proteins” value in [2] is reported as “Cell Growth Regulatory Protein failed to phosphorylate Cdk2 that was complexed with either cyclin A or cyclin E”; in data set [8], “neither Cell Growth Regulatory Protein nor Wee1 phosphorylated the Cdk4 subunit”; in [9], “Cell Growth Regulatory Protein failed to phosphorylate Cdk2 that was complexed with either cyclin A or cyclin E”. In addition, the “histone H1 kinase activity in mixed Sf9 lysates, wild-type Cdk2 against Cdk2-AF” value in [2] was “an equivalent amount of histone H1 kinase activity was present in wild-type Cdk2 and Cdk2-AF lysates that had been mixed with either cyclin A or cyclin E lysates in the presence of Cell Growth Regulatory Protein”; in data set [9], “an equivalent amount of histone H1 kinase activity was present in wild-type Cdk2 and Cdk2-AF lysates that had been mixed with either cyclin A or cyclin E lysates in the presence of Cell Growth Regulatory Protein”. Moreover, the “histone H1 kinase activity in mixed Sf9 lysates” value in [3] is recorded as “greatly reduced histone H1 kinase activity compared to a mock-treated or Cdc2-AF control lysate”. For the same protein, the “histone H1 kinase activity (Cdc2 kinase activation) in mixed Sf9 lysates” value in [4] is “such lysates also inhibited both Cdc2-A14 and Cdc2-F15 activation”; in data set [5] it was “such lysates also inhibited both Cdc2-A14 and Cdc2-F15 activation; Cdc2-A14 lysates consistently retain some histone H1 kinase activity”; in [6], “a dramatic reduction in Cdc2 kinase activation was observed, similar to that observed for Wee1”. The “32P-labeling in a kinase reaction with affinity purified proteins, SDS-PAGE” value in data set [6] is “both purified Cell Growth Regulatory Protein and Wee1 kinases were capable of phosphorylating wild-type Cdc2 as well as a kinase-deficient Cdc2 mutant (K-), each of which was complexed with cyclin B1”; in data set [7] it was “both purified Cell Growth Regulatory Protein and Wee1 kinases were capable of phosphorylating wild-type Cdc2 as well as a kinase-deficient Cdc2 mutant (K-), each of which was complexed with cyclin B1”; in data set [10], “the Cdc2-AF mutant was not phosphorylated by Cell Growth Regulatory Protein or Wee1”. Besides, the “32P-labeling in a kinase reaction with the Cdc2/cyclin B1 complex reconstituted from monomers” value in data set [6] is reported as “reconstitution of the Cdc2/cyclin B1 complex, by pre-incubating monomeric Cdc2 with monomeric cyclin B1, enabled Cell Growth Regulatory Protein to phosphorylate Cdc2”. For the same protein, the “immunoblotting of mixed lysates with phosphotyrosine antibodies” value in data set [6] is “showed that Cdc2 was phosphoryalted on Tyrosine 15 to some extent”. Also, the “phosphoamino acid analysis of 32P-labeled Cdc2” value in data set [7] was “phosphorylation occurred only on threonine residues”.
